Source: patent US20250163140A1 (Kyowa Kirin, published 2025)

Tests used:
[1] = target: T1, Recombinant Human FGF-23 (R&D Systems, Cat No. 2604-FG-025/CF) (human, UniProt Q9GZV9 25-251); assay: cell-based or functional assay
T1 sequence (looked up): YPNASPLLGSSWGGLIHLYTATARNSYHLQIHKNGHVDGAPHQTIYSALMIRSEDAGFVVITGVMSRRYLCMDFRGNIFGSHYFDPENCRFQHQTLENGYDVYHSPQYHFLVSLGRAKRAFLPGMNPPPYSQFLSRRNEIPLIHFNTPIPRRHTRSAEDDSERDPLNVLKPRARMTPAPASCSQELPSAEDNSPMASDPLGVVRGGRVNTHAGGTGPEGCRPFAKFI

[2] = target: T1, Recombinant Human FGF-23 (R&D Systems, …); assay: cell-based or functional assay; remark: listed apart in the source
[3] = target: T1, Recombinant Human FGF-23 (R&D Systems, …); assay: SPR, antibody captured on Protein A chip, FGF-23 analyte
[4] = target: T1, Recombinant Human FGF-23 (R&D Systems, …); assay: as above; remark: listed apart in the source

B1: antibody A-9 (antibody, V domains shown)
VH: QVQLVQSGAEVKKPGASVKVSCKASGYTFTNHYMHWVRQAPGQGLEWMGIINPISGSTSNAQKFQGRVTMTRDTSTSTVYMELSSLRSEDTAVYYCARDAVDAFDFWGQGTMVTVSS
VL: AIQLTQSPSSLSASVGDRVTITCRASQGISSALVWYQQKPGKAPKLLIYDASSLESGVPSRFSGSGSGTDFTLTISSLQPEDFATYYCQQFWDDFDFGPGTKVDIK
notes: not shown: human kappa chain constant region
B1 was tested, and the “FGF23 neutralizing activity, fold against antibody A” value [1] was 3 fold, the “FGF23 neutralizing activity IC50 (luciferase promoter assay)” value [2] was 1 ng/mL and the “fold antigen binding activity against antibody A” value [3] was 2 fold. For the same binder, the Kd [4] was 6.87 pM.
